Ends that are not written are not given here.
What was measured:
Type in all cases: cell-based
α4β1 [1] = target: T1, α4β1 (Homo sapiens, UniProt P05556+P13612); test: J6 cell adhesion to GST-CS-1 (CS-1 fragment of fibronectin); conditions: for Inhibition of J6 cell adhesion to GST-CS-1 by synthetic peptide (α4β1-CS-1 interaction): varying peptide concentrations, 35 min 37° C.; for Relative potency compared to parent peptide SVVYGLR against α4β1 (J6 adhesion to GST-CS-1): SVVYGLR peptide with the residue mutated to alanine
T1 construct: Of the integrins analysed J6 express only α5β1 and α4βwhile HL60 express α4β1 and α5β1 and αLβ2; endogenous in cells; host or cells: J6 cells
T1 sequence (P05556 21-798, one chain of several): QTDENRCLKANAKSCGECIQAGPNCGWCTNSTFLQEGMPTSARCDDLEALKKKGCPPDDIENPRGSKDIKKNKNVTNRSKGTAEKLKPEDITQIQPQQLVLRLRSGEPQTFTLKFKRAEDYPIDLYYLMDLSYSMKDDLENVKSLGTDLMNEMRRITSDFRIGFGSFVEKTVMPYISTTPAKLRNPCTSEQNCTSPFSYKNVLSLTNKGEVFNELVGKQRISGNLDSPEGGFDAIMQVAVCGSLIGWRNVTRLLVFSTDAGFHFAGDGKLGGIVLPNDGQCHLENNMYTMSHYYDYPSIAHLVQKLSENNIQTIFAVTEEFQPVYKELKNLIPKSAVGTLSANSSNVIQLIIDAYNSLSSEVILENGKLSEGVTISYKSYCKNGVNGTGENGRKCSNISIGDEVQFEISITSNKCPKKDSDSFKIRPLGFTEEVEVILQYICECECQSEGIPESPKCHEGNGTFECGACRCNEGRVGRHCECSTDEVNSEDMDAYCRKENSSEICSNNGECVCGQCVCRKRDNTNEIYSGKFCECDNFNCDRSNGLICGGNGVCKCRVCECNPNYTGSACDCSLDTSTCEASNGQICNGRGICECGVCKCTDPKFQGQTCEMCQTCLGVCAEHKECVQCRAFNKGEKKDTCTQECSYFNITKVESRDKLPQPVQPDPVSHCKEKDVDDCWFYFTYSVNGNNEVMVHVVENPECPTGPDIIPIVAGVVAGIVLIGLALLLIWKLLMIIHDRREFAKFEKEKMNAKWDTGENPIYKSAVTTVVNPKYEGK
Experimental: (§1) All proteins were coated onto MAXISORP plates (Nunc) overnight at 4° C. Each protein was diluted in PBS at the concentrations indicated, and a total volume of 100 μl added per well. Plates were washed twice in PBS then blocked with 3% BSA/PBS for 1 hr at 37° C., and finally washed twice in PBS. Routinely HL60 cells were pelleted and washed once in HBSS (Sigma) then spread in 25 mM Hepes 7.5, HBSS at 2×10^6 ml^−1 (100 μl per well) in the presence of 0.2 mM MnCl2 and 50 ng/ml TPA, with other additions as indicated. J6 cells were likewise pelleted and washed once in HBSS (Sigma) then spread in 25 mM Hepes (pH7.5), HBSS at 2×10^6ml^−1 (100 μl per well) in the presence of 0.2 mM MnCl2 and other additions as indicated. For antibody inhibition cells were preincubated with the antibody (10 μg/ml) on ice for 10 minutes. Cells were then allowed to attach for 35 minutes at 37° C., washed twice in PBS, once in ethanol, and fixed in ethanol for 20 minutes at room temperature. For quantitation cells were visualised by staining with 0.1% crystal violet (Sigma) for 10 minutes then lysed in 0.5% TRITON X-100 (Sigma) and read at 570 nm in a Wallac Victor plate reader.

α4β7 = target: T2, α4β7 (Homo sapiens, UniProt P13612+P26010); test: α4β7 adhesion assay: RPMI8866 cell adhesion to zz-MAdCAM; conditions: for Inhibition of RPMI8866 cell adhesion to zz-MAdCAM by synthetic peptide: varying peptide concentrations, 20 min 37° C.; for Relative potency compared to parent peptide SVVYGLR against α4β7 (RPMI8866 adhesion to zz-MAdCAM): SVVYGLR peptide with the residue mutated to alanine
T2 construct: RPMI8866 cells which express α4β7, and small amounts of α4β1 and α5β1 were used; endogenous in cells; host or cells: RPMI8866 cells
T2 sequence (P13612 34-1032): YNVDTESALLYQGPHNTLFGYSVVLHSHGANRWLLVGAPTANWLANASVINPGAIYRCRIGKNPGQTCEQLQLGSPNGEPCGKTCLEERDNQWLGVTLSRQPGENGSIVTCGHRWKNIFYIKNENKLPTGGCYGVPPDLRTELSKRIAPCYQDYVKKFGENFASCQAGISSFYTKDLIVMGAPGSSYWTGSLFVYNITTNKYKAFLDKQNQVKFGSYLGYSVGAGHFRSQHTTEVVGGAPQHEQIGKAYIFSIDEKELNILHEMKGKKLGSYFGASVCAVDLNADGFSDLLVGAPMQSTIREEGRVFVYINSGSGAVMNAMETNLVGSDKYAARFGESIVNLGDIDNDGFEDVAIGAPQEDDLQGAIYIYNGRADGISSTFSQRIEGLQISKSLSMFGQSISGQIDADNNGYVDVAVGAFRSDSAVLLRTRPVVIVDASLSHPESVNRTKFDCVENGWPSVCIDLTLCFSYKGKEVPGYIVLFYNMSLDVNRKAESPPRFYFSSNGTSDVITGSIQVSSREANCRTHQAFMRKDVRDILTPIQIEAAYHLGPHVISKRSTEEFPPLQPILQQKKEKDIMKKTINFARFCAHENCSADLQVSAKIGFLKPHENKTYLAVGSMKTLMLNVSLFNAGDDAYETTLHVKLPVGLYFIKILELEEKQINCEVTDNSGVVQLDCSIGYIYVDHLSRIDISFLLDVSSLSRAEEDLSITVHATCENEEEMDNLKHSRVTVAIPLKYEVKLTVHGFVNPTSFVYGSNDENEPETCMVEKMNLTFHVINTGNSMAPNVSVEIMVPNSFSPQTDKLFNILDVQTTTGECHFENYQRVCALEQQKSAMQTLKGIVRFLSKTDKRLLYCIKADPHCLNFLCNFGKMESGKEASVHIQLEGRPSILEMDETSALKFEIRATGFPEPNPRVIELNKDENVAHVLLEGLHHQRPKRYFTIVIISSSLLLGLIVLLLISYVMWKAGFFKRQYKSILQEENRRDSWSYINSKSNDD
T2 sequence (P26010 20-798): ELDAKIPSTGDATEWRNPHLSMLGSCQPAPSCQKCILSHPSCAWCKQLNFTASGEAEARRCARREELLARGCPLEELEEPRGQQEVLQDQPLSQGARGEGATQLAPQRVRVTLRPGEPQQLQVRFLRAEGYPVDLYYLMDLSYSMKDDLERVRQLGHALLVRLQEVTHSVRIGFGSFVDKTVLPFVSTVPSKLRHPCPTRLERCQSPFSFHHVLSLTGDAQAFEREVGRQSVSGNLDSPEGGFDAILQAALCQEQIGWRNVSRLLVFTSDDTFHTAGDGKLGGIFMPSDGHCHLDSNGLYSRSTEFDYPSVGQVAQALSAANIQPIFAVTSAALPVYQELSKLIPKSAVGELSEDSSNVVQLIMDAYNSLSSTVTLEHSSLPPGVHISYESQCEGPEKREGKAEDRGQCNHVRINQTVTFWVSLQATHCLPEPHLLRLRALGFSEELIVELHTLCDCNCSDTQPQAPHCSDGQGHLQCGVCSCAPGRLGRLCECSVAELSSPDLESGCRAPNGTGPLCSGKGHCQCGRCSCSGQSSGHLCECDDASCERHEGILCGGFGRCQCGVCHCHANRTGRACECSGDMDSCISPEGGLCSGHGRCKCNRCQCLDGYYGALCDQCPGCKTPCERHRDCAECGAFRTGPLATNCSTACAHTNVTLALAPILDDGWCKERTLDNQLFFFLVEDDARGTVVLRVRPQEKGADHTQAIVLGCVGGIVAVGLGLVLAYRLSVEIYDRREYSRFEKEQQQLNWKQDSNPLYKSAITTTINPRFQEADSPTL
Experimental: The recombinant zz-MAdCAM was absorbed onto Maxisorp plate pre-coated for 2.5 hours at 37° C. with 100 μL of human IgG, and then washed twice with PBS. For capture the recombinant zz-MAdCAM was diluted to the appropriate concentration in 3% BSA/PBS, 100 μl added to each well, and incubated overnight at 4° C. Prior to use plates were washed twice in PBS.
For the α4β7 adhesion assay RPMI8866 cells were washed in cation free HBSS supplemented with 1 mM EDTA, pelleted and labelled by incubating with BCECF (Molecular Probes) in cation-free HBSS at 37° C. for 10 minutes. At this stage cells were also co-incubated with […] human IgG to block endogenous Fc receptors. Cells were then washed once more in cation-free HBSS and then used in the adhesion assay at a final concentration of 3×10^6 cells ml^−1 in the presence of the appropriate treatment as indicated. To prevent cells clumping the assay plate was finally centrifuged at 400 rpm for 3 minutes without the brake. Cells were then incubated for 20 minutes at 37° C. and then washed twice in PBS before reading directly in a plate reader. For antibody inhibition studies the cells were preincubated with the appropriate antibody at […] for 5 minutes at room temperature prior to being placed in the incubator.

α4β1 [2] = test: J6 cell adhesion to GST-CS-1 (CS-1 fragment of fibronectin); conditions: J6/CS-1 versus RPMI8866/zz-MAdCAM
Experimental: as §1

α4β1 [3] = target: T1, α4β1; test: J6 cell adhesion to GST fusion proteins of osteopontin (OPN); conditions: 0.2 mM MnCl2, 35 min 37° C.
Experimental: as §1

## FPTDLPA (listed as Homo sapiens) [synthetic peptide of OPN aa136-142]
α4β1 [1]; lower matrix concentrations, data not shown
  Inhibition of J6 cell binding to CS-1 over the scrambled control at lower matrix concentrations: weak inhibition
α4β1 [1]
  Inhibition of J6 cell adhesion to GST-CS-1 by synthetic peptide (α4β1-CS-1 interaction): unable to inhibit binding to CS-1

## GRVLYSV (Synthesized and/or Homo sapiens) [scrambled control peptide of SVVYGLR, reference compound]
α4β7
  Inhibition of RPMI8866 cell adhesion to zz-MAdCAM by synthetic peptide: no effect

## Gly166: SVVYGLR synthetic peptide in which Gly166 is mutated to alanine (SVVYALR; SVVYGLR peptide; UniProt P10451 162-168, looked up, variant G166A)
α4β1 [2]
  Selectivity between α4β1 and α4β7 on mutating the residue: introduces a degree of selectivity

## Leu167: SVVYGLR synthetic peptide in which Leu167 is mutated to alanine (SVVYGAR; SVVYGLR peptide; UniProt P10451 162-168, looked up, variant L167A)
α4β1 [1]
  Relative potency compared to parent peptide SVVYGLR against α4β1 (J6 adhesion to GST-CS-1): relative potency similar to that observed with the blocked peptide
α4β7
  Relative potency compared to parent peptide SVVYGLR against α4β7 (RPMI8866 adhesion to zz-MAdCAM): relative potency similar to that observed with the blocked peptide

## SVVYGLR (VARIANT 2 The carboxy terminal end can be, for example COO-, COOH, or CONH2, see specification, for example Figures 10, 11, and 13; listed as Homo sapiens) [synthetic peptide of OPN aa162-168]
α4β1 [1]
  Potency at blocking J6 adhesion to CS-1 compared with the CS-1 peptide itself: only slightly less potent
  Inhibition of J6 cell adhesion to GST-CS-1 by synthetic peptide (α4β1-CS-1 interaction): blocked adhesion to CS-1
α4β7
  Inhibition of RPMI8866 cell adhesion to zz-MAdCAM by synthetic peptide: inhibited adhesion

## SVVYGLR-CONH2 (SVVYGLR-NH2; listed as Homo sapiens) [SVVYGLR (SEQ ID NO: 4)-CONH2, capped peptide lacking the acidic carboxy terminus]
α4β1 [1]
  Inhibition of J6 cell adhesion to GST-CS-1 by synthetic peptide (α4β1-CS-1 interaction): abrogated the ability
α4β7
  Inhibition of RPMI8866 cell adhesion to zz-MAdCAM by synthetic peptide: abrogated the ability

## Tyr165: SVVYGLR synthetic peptide in which Tyr165 is mutated to alanine (SVVAGLR; SVVYGLR peptide; UniProt P10451 162-168, looked up, variant Y165A)
α4β1 [1]
  Relative potency compared to parent peptide SVVYGLR against α4β1 (J6 adhesion to GST-CS-1): reduced the potency
α4β7
  Relative potency compared to parent peptide SVVYGLR against α4β7 (RPMI8866 adhesion to zz-MAdCAM): reduced the potency

## Val163: SVVYGLR synthetic peptide in which Val163 is mutated to alanine (SAVYGLR; SVVYGLR peptide; UniProt P10451 162-168, looked up, variant V163A)
α4β1 [1]
  Relative potency compared to parent peptide SVVYGLR against α4β1 (J6 adhesion to GST-CS-1): reduced the potency
α4β7
  Relative potency compared to parent peptide SVVYGLR against α4β7 (RPMI8866 adhesion to zz-MAdCAM): reduced the potency

## Val164: SVVYGLR synthetic peptide in which Val164 is mutated to alanine (SVAYGLR; SVVYGLR peptide; UniProt P10451 162-168, looked up, variant V164A)
α4β1 [1]
  Relative potency compared to parent peptide SVVYGLR against α4β1 (J6 adhesion to GST-CS-1): minor contribution to binding
α4β7
  Relative potency compared to parent peptide SVVYGLR against α4β7 (RPMI8866 adhesion to zz-MAdCAM): minor contribution to binding

## aa17-168: GST fusion protein representing the thrombin cleaved fragment of OPN
α4β1 [3]
  Ability of coated GST-OPN fusion protein to support J6 cell adhesion: adhered

## aa17-168RAD: GST fusion of thrombin cleaved OPN fragment with RGD motif mutated to RAD
α4β1 [3]
  Ability of coated GST-OPN fusion protein to support J6 cell adhesion: did not affect binding

## aa17-314: GST fusion protein representing full length human OPN
α4β1 [3]
  Ability of coated GST-OPN fusion protein to support J6 cell adhesion: adhered

## aa115-168: GST fusion, N-terminal deletion of the thrombin cleaved OPN fragment
α4β1 [3]
  Ability of coated GST-OPN fusion protein to support J6 cell adhesion: bound

## aa125-168: GST fusion, N-terminal deletion of the thrombin cleaved OPN fragment
α4β1 [3]
  Ability of coated GST-OPN fusion protein to support J6 cell adhesion: bound

## aa132-146: GST fusion protein of OPN aa132-146 (LVTDFPTDLPATEVF; also: GST fusion protein; UniProt P10451 132-146, looked up, fragment)
α4β1 [3]
  Ability of coated GST-OPN fusion protein to support J6 cell adhesion: supported J6 cell adhesion

## aa153-168: GST fusion protein of OPN aa153-168, Gly of RGD mutated to Ala (VDTYDGRADSVVYGLR; also: GST fusion protein)
α4β1 [3]
  Ability of coated GST-OPN fusion protein to support J6 cell adhesion: supported J6 cell adhesion
